Literature values, collected in patent US9925277B2, “Polynucleotide compositions containing amino acids” (ModernaTX, Inc., priority 2013, dated 2018).

Target: Factor IX (Homo sapiens, UniProt P00740, R384L)
Settings: mutation at position R338L

Factor IX, sequence (P00740 47-461 R384L): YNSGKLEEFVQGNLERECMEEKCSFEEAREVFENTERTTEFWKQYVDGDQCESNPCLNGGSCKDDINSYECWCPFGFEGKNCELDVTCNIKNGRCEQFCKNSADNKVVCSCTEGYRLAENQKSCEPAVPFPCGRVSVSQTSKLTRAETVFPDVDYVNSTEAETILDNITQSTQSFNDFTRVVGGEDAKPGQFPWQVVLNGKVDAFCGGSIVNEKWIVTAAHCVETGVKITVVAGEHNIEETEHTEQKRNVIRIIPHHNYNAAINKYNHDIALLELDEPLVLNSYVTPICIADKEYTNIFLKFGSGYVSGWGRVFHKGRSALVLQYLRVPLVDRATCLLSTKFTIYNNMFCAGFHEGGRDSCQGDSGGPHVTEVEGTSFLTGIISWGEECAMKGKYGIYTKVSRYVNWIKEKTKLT

## FIX Padua: Factor IX protein with mutation at position R338L, hyperactive naturally occurring variant
  increased activity of Factor IX protein: 10 fold
